The values that follow come from publication PMC10973363, “Insights into the modulation of bacterial NADase activity by phage proteins” (Nature Communications, 2024).

Test [1] has as its target T1, defense-associated sirtuin 2 (DSR2), full-length wild type (Bacillus subtilis 29R, UniProt P0DXN8 1-1005).
T1 construct: DSR2 from Bacillus subtilis 29R, WP_029317421; Cloned into the 2CT-10 vector (Addgene plasmid #55209) with His-MBP tag and TEV site; DSR2-TTP was cloned into a pET-derived vector with an N-terminal His tag; also called WT DSR2; full-length DSR2; source: E. coli Rosetta (DE3), purified (Ni-NTA, TEV cleavage, anion exchange, gel filtration); not shown: His, N-terminal, cleaved; MBP, N-terminal, …
T1 sequence (looked up): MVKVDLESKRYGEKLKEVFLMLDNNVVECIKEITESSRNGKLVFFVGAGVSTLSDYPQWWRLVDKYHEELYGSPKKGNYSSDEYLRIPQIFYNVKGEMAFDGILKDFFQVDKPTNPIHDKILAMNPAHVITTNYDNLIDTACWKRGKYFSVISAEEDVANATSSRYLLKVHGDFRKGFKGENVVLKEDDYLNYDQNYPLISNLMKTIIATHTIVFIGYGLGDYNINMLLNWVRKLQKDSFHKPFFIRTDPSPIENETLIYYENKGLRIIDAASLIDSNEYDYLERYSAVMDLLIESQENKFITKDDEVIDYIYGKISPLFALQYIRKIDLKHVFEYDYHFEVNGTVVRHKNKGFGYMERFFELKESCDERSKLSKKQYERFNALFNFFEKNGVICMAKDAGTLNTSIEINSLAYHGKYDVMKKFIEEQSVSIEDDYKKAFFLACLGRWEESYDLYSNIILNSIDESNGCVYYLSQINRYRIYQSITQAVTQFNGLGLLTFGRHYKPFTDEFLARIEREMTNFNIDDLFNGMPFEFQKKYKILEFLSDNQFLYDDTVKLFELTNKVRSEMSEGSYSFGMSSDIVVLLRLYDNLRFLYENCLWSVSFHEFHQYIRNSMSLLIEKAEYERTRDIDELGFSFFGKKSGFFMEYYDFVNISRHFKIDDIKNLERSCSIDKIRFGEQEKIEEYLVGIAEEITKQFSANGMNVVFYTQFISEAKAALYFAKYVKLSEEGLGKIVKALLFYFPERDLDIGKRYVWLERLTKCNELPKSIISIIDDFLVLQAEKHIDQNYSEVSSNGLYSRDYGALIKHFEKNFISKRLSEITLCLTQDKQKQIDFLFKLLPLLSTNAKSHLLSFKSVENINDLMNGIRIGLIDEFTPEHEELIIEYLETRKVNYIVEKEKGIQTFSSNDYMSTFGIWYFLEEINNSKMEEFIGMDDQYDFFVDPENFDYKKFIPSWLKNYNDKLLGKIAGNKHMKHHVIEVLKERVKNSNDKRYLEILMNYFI
The test is described as follows: AUC; sedimentation velocity, samples at 1 mg/mL in gel-filtration buffer (25 mM Tris-HCl pH 7.5, 150 mM NaCl, 2 mM DTT), SEDFIT and SEDPHAT. As to conditions: both partners purified.

The target in a further test is T2, DSR2 K960A/D993A (Bacillus subtilis 29R, UniProt P0DXN8 1-1005, K960A | D993A).
T2 construct: DSR2 from Bacillus subtilis 29R, WP_029317421, with K960A and D993A; source: E. coli Rosetta (DE3), purified (Ni-NTA, TEV cleavage, anion exchange, gel filtration); not shown: His, N-terminal, cleaved; MBP, N-terminal, cleaved
T2 sequence (looked up): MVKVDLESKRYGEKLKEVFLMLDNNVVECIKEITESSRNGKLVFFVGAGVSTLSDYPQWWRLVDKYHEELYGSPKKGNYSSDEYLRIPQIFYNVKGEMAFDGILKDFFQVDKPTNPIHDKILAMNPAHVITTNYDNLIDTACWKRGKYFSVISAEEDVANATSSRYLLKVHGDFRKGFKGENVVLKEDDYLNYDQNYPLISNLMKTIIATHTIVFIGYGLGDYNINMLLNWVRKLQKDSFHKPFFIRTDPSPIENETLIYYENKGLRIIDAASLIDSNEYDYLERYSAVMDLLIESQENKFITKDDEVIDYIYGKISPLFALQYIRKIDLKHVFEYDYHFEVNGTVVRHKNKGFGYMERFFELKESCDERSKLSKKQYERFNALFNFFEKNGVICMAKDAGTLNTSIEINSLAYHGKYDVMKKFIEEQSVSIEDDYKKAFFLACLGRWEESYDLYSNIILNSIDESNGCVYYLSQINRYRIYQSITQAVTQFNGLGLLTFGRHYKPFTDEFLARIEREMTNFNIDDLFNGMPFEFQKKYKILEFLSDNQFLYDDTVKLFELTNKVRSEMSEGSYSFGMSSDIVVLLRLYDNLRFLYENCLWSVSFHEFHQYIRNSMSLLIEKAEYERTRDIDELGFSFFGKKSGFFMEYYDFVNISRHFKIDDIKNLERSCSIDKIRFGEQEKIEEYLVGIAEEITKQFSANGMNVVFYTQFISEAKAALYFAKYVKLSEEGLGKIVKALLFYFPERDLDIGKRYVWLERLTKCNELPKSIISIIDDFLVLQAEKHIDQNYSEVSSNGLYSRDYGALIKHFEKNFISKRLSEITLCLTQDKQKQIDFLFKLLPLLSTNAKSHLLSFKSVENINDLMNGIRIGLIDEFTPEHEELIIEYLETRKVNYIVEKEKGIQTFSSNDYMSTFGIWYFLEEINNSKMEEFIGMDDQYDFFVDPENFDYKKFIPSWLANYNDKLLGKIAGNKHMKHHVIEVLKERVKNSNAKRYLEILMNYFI
The test is described as follows: pull-down; N-terminal His-tagged TTP or DSAD1 on Ni-NTA agarose beads, excess untagged DSR2 variants added, 1 h at 4 °C, 25 mM Tris-HCl pH 7.5, 300 mM NaCl, washes with 10 mM imidazole, SDS-PAGE with Coomassie staining. The note with it: both partners purified.

B1: DSR anti-defense 1 (DSAD1), His-tagged (natural protein)
chain: MIEIFKDTGATHDLVYHSKINTFVWDVEFDIVLSDSKELNKCYFVKCFNPYRINGKCDFAVSSIDIFSEGKRLLIENEFNFKITKAVHVATSKDVTEIVLHLSERISSPFPIVKEVVYLD
notes: phage-encoded DSAD1, WP_004399562; aa 1-9 not built in the cryo-EM model; Cloned into a pET-derived vector with an N-terminal His tag; also called anti-DSR2 protein; His-tagged DSAD1; source: E. coli Rosetta (DE3), purified (Ni-NTA, anion exchange, gel filtration); not shown: His, N-terminal, kept
B1: the binding result (in test [1]; in the test with DSR2 K960A/D993A) was “binds” each time.
